T1: human PTH1R overexpressed on CHO cells (human, UniProt Q03431 27-593)
T1 sequence (looked up): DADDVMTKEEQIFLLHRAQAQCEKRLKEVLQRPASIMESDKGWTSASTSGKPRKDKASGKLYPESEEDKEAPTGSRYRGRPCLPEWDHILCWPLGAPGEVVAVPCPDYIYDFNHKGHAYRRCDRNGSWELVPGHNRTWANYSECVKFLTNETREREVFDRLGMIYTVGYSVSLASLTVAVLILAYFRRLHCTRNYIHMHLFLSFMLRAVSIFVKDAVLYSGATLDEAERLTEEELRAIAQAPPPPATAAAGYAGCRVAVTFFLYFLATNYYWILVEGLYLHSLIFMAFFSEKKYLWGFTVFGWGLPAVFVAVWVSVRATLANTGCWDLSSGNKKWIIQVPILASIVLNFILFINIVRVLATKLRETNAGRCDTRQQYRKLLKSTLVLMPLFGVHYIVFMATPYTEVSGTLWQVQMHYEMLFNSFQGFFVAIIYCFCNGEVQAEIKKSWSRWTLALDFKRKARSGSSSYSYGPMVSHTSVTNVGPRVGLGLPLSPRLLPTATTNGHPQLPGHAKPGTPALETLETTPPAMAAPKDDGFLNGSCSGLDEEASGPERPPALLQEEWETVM

T2: mouse PTH1R overexpressed on CHO cells (mouse, UniProt P41593 27-591)
T2 sequence (looked up): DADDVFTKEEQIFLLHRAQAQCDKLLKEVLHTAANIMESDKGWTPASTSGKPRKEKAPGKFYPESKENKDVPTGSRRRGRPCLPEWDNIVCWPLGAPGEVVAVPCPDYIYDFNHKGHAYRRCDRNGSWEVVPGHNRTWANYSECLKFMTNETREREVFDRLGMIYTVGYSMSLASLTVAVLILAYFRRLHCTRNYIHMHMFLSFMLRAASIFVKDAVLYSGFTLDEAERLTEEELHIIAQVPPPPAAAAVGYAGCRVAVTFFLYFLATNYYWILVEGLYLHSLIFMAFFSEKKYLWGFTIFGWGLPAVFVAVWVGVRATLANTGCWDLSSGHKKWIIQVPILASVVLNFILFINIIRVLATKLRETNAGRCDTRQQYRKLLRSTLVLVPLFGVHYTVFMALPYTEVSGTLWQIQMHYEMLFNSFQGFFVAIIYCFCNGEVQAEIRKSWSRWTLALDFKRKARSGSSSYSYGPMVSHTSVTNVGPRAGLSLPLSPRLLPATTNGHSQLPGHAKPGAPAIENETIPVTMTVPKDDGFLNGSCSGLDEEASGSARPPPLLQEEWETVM

T3: rat PTH1R on UMR106 cells (rat, UniProt P25961 27-591)
T3 sequence (looked up): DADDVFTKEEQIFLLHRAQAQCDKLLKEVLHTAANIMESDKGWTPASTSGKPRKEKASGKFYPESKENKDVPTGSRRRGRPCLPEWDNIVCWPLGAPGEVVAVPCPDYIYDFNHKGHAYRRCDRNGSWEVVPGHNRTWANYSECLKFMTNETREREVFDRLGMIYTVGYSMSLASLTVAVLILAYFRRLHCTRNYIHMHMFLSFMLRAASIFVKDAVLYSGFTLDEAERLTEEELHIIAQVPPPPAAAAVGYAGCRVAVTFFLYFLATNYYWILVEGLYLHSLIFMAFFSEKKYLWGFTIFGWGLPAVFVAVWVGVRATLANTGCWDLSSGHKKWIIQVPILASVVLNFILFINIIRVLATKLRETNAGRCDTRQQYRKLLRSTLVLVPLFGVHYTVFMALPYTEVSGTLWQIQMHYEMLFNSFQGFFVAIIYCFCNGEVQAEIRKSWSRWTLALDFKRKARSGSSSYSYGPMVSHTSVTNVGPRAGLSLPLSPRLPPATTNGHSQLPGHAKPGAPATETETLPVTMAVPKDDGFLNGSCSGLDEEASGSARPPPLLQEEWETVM

T4: human PTH1R on Saos-2 cells (endogenous) (human, UniProt Q03431 27-593)
T4 sequence (looked up): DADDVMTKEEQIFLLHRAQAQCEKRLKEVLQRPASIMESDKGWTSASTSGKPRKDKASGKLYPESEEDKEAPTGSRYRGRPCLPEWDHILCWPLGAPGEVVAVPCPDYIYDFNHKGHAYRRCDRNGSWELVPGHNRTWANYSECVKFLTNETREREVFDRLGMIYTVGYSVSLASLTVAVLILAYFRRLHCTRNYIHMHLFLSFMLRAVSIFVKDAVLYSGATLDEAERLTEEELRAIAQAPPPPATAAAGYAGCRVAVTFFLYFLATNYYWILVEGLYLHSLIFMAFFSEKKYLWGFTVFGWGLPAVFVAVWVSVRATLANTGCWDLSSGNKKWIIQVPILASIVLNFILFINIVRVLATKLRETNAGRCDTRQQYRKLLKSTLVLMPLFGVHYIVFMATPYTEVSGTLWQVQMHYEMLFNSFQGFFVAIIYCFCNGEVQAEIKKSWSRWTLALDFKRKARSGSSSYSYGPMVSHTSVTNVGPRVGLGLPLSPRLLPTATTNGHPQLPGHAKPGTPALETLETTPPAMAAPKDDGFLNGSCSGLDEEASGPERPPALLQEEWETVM

T5: recombinant N-terminal extracellular domain of the human PTH1R receptor (human, UniProt Q03431 27-188, limits assumed)
T5 construct: domain: N-terminal extracellular domain; Bought reagent; also called N-ECD PTH1R; PTH1R N-terminal ECD
T5 sequence (looked up): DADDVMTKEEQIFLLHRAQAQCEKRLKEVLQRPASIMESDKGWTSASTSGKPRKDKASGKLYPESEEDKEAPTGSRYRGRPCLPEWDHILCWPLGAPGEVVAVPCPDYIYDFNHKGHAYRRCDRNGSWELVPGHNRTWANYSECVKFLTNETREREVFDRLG


Key:
[1] = target: T1, human PTH1R overexpressed on CHO cells; assay: cell-based or functional assay
[2] = target: T2, mouse PTH1R overexpressed on CHO cells; assay: cell-based or functional assay
[3] = target: T3, rat PTH1R on UMR106 cells; assay: cell-based or functional assay
[4] = target: T4, human PTH1R on Saos-2 cells (endogenous); assay: cell-based or functional assay
[5] = target: T5, recombinant N-terminal extracellular …; assay: SPR, IgG captured, ECD injected
Description: An anti-human IgG-Fc CMS sensor chip (GE Healthcare) was prepared using standard amine coupling as described by the manufacturer's protocol for the capture Ab on a BIACORE 4000 system (GE Healthcare). Briefly, the chip surface was activated with a 10 minute injection at 10 μL/minute of a freshly mixed 1:1 solution of 0.1 M N-Hydroxysuccinimide (NHS) and 0.4 M 1-Ethyl-3-(3-dimethylaminopropyl) carbodiimide hydrochloride (EDC). Following the activation injection, 15 ug/mL anti-human IgG-Fc antibody in acetate pH 4.5 was injected at 10 μL/minute for 10 minutes to achieve a high density capture surface. 7 minutes of 1M Ethanolamine hydrochloride-NaOH pH 8.5 was injected to block the surface. The NHS, EDC, and Ethanolamine used were from the BIACORE Amine Coupling Kit.
Kinetic Analysis was performed using HBS-EP+(Teknova) with 2.5 mg/mL BSA (Sigma Aldrich, St. Louis Mo.). Antibodies were diluted to 0.5 μg/mL and captured to achieve a surface density of 100 to 200 RU. […] Injections were performed at 30 μL/minute for 240 seconds with a 360 second dissociation time. Regeneration was then performed with one 60 second injection 3M MgCl.
The data were analyzed using BIACORE 4000 Evaluation Software and was double referenced by subtracting both the blank flow cell data and the averaged bracketing blank injections. The data was fit by simultaneously fitting the an off-rate (kd) and on-rate (kₐ), and calculating the KD as KD=kd/kₐ.

[6] = target: T1, human PTH1R overexpressed on CHO cells; assay: flow cytometry on CHO cells, 24 hr at 4 C
Description: (§1) To characterize antibody binding to PTH1R, cells were labeled with either CellTrace™ CFSE or CellTrace™ Violet. Unlabeled CHOK1 parent, CHO human PTH1R labeled with CellTrace™CFSE, and CHO mouse PTH1R labeled with CellTrace™Violet were pooled together and stained with increasing concentrations of antibody. Antibodies were incubated for 24 hr at 4° C. followed by two washes with FACS Buffer (0.5% BSA, 0.1% NaN3 in DPBS). Cells were then incubated with Allophycocyanin (APC) AffiniPure F(ab′)₂ Fragment Goat Anti-Human IgG (H+L) (Jackson ImmunoResearch, West Grove, Pa.) for 20 minutes at 4° C. Followed by two washes, cells were resuspended in FACS Buffer. Samples were acquired using BD Cytometer (BD Biosciences, San Jose, Calif.) and data were analyzed using FlowJo (FlowJo, LLC, Ashland, Oreg.) and Prism (GraphPad Software, La Jolla, Calif.).

[7] = target: T2, mouse PTH1R overexpressed on CHO cells; assay: flow cytometry on CHO cells, 24 hr at 4 C
Description: as §1

| EC50 of PTH(1-34), cAMP assay, with 267 nM IgG [1] [nM] | EC50 of PTH(1-34), cAMP assay, with 267 nM IgG [2] [nM] | EC50 of PTH(1-34), cAMP assay, with 267 nM IgG [3] [nM] | EC50 of PTH(1-34), cAMP assay, with 267 nM IgG [4] [nM] | EC50 of PTHrP(1-34), cAMP assay, with 267 nM IgG [4] [nM] | Kd [5] [nM] | koff [5] [s⁻¹] | kon [5] [M⁻¹ s⁻¹] | EC50 [6] [nM] | EC50 [7] [nM] | Binder |
| --- | --- | --- | --- | --- | --- | --- | --- | --- | --- | --- |
| 0.404 | 0.614 | 8.1 | 4.17 | 11.8 | 0.75 | 0.0011 | 1.4e+06 | 0.167 | 0.322 | XPA.85.340 (antibody, V domains shown, Light-chain-shuffled variant of XPA.85.017) VH: EVQLVETGGGVVRPGGSLRLSCAASGFTFSSSAMSWVRQTPGKELQWVSAITPGGEGTYYADVVKGRFTISRDNSKDTLYLQMDSLRAEDTAVYYCARDLYGSYGDAFDIWGQGTLVTVSS VL: SYVLTQPPSVSVAPGQTASITCSGDNLGEKFVSWYQQKAGQSPVLVIFEDNKRPSGIPERFAGSNSGNRATLTIRGTQAEDEADYYCQAWDSSWVFGGGTQLTVL |
| 0.0429 | 4.54 |  |  | 6.41 | 2.4 | 0.0019 | 800000 | 0.265 | 0.384 | XPA.85.335 (antibody, V domains shown, Light-chain-shuffled variant of XPA.85.017) VH: EVQLVETGGGVVRPGGSLRLSCAASGFTFSSSAMSWVRQTPGKELQWVSAITPGGEGTYYADVVKGRFTISRDNSKDTLYLQMDSLRAEDTAVYYCARDLYGSYGDAFDIWGQGTLVTVSS VL: QSVLTQPPSVSAAPGQRVTISCSGNTSNIGNNFVSWYQQLPGTAPKLLIYDDNKRPSGIPDRFSGSKSGTSATLGISGLQTGDEADYYCGTWDNSLNPPWVFGGGTQLTVL |
| 0.244 | 1.8 | 7.86 | 32.8 | 33 | 0.43 | 0.00057 | 1.3e+06 | 0.181 | 0.68 | XPA.85.338 (antibody, V domains shown, Light-chain-shuffled variant of XPA.85.017) VH: EVQLVETGGGVVRPGGSLRLSCAASGFTFSSSAMSWVRQTPGKELQWVSAITPGGEGTYYADVVKGRFTISRDNSKDTLYLQMDSLRAEDTAVYYCARDLYGSYGDAFDIWGQGTLVTVSS VL: SYELTQPPSVSVAPGQTATITCSGDKLGDKYASWYQQKPGQSPVLVMFENRDRPSGIPDRFSGSNSGNTATLTISGTQAMDEADYYCQAWDSSTAWVFGGGTQLTVL |
| 0.107 | 0.219 | 2.88 |  | 27.1 | 0.75 | 0.00046 | 610000 | 1.26 | 3.27 | XPA.85.337 (antibody, V domains shown, Light-chain-shuffled variant of XPA.85.017) VH: EVQLVETGGGVVRPGGSLRLSCAASGFTFSSSAMSWVRQTPGKELQWVSAITPGGEGTYYADVVKGRFTISRDNSKDTLYLQMDSLRAEDTAVYYCARDLYGSYGDAFDIWGQGTLVTVSS VL: SYVLTQPPSVSVAPGQTATITCSGDDFGDKYVSWYQQKPGQSPLLVIFQDNERPSGIPERFSGSNSGNTATLTISGTQAMDEADYYCQAWDSNWVFGGGTKVTVL |
| 0.0181 | 0.144 |  |  | 23.6 | 17 | 0.019 | 1.1e+06 | 0.342 | 14.7 | XPA.85.336 (antibody, V domains shown, Light-chain-shuffled variant of XPA.85.017) VH: EVQLVETGGGVVRPGGSLRLSCAASGFTFSSSAMSWVRQTPGKELQWVSAITPGGEGTYYADVVKGRFTISRDNSKDTLYLQMDSLRAEDTAVYYCARDLYGSYGDAFDIWGQGTLVTVSS VL: QSVLTQPPSVSAAPGQKVTISCSGTGSNIGSNYVAWYQQLPGTAPKLLIYDDNKRPSGTPDRFSGSKSGTSATLVIAGLQTGDEADYYCGTWDNTLNVGGVFGGGTQLTVL |
